Source: US20240417484A1, “ANTIGEN-BINDING POLYPEPTIDES AGAINST CD73” (UNIVERSITÄTSKLINIKUM HAMBURG-EPPENDORF, priority 2021, published 2024)

T1: recombinant human CD73 ectodomain (aa 27-549) with C-terminal His6x tag (human, UniProt P21589 27-549)
T1 construct: also called soluble recombinant human CD73; soluble human CD73
T1 sequence: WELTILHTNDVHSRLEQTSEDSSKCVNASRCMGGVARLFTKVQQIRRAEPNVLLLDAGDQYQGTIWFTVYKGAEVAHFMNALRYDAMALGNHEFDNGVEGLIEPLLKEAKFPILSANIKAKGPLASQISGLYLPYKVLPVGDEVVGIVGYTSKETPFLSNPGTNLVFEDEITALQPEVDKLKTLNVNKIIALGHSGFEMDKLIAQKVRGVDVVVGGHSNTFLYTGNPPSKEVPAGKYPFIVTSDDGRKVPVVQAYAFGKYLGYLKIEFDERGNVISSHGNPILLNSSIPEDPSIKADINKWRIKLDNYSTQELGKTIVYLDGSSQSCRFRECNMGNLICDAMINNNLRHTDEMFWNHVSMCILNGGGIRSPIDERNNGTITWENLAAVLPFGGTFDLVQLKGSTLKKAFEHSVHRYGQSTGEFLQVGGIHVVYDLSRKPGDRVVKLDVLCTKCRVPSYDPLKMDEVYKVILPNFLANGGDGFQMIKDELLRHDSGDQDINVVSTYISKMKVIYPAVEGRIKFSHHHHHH

T2: soluble human CD73 (Homo sapiens, UniProt P21589)
T2 construct: The ectodomain of CD73 (aa 27-549) was expressed as a recombinant protein with a C-terminal His6× tag; His6 (C); made in house; host or cells: transiently transfected HEK cells
T2 sequence (P21589 27-549): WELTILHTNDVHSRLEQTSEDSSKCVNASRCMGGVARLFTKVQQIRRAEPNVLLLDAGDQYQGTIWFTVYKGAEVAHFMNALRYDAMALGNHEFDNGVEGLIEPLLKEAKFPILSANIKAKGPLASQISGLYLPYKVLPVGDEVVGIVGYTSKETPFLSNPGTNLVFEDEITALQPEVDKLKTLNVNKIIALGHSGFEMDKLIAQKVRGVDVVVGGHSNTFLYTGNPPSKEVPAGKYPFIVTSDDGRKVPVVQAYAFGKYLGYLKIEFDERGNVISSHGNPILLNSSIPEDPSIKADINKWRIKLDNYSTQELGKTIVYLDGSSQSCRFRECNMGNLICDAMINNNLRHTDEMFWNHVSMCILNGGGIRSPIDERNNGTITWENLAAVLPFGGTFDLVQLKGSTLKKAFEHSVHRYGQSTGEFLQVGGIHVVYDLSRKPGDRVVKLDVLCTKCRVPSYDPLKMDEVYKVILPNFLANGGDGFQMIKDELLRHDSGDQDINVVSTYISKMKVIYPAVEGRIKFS

B1: SB125 rabbit IgG hcAb (Fc fusion)
heavy: QVQLQESGGGLVQPGGSLRLSCAVSGFALDYYTIGWFRQAPGKEREGVSCISSSGGSTNYADSVKGRLTISRDNAKNTVYLQMNSLKPEDTAVYYCAAQRYYYCSDKVEVYDYWGQGTQVTVSS
notes: not shown: hinge and Fc-domains of rabbit IgG
B2: SB125: CD73-specific alpaca VHH clone, family 1, SEQ ID NO:68; tested as rabbit IgG hcAb (antibody)
heavy: QVQLQESGGGLVQPGGSLRLSCAVSGFALDYYTIGWFRQAPGKEREGVSCISSSGGSTNYADSVKGRLTISRDNAKNTVYLQMNSLKPEDTAVYYCAAQRYYYCSDKVEVYDYWGQGTQVTVSS
modifications: left off: a dimerising Fc or GST
notes: tested as rabbit IgG hcAb
B3: SB98: CD73-specific alpaca VHH clone, family 1, SEQ ID NO:62; tested as rabbit IgG hcAb (antibody)
heavy: QVKLQESGGGLVQPGGSLRLSCAASGFTLDYYTIGWFRQAPGKEREGVSCISSSGGITNYADSVKGRLTISRDNAKNTVYLQMNSLKPEDTAVYYCAAQKYYYCSGKAEVYDYWGQGTQVTVSS
modifications: left off: a dimerising Fc or GST
notes: tested as rabbit IgG hcAb
B4: SB108: CD73-specific alpaca VHH clone, family 1, SEQ ID NO:67; tested as rabbit IgG hcAb (antibody)
heavy: QVKLQESGGGLVHSGGSLRLSCAVSGFALDYYTIGWFRQAPGKEREGVSCISSSGSSTNYADSMKGRLTISRDNAKNTVYLQMNSLKPEDTAVYYCAAQRYYYCSDKVAVYDYWGQGTQVTVSS
modifications: left off: a dimerising Fc or GST
notes: tested as rabbit IgG hcAb
B5: SB98 rabbit IgG hcAb (Fc fusion)
heavy: QVKLQESGGGLVQPGGSLRLSCAASGFTLDYYTIGWFRQAPGKEREGVSCISSSGGITNYADSVKGRLTISRDNAKNTVYLQMNSLKPEDTAVYYCAAQKYYYCSGKAEVYDYWGQGTQVTVSS
notes: as for B1
B6: SB115 rabbit IgG hcAb (Fc fusion)
heavy: DVQLQASGGGLVQPGGSLRLSCVVSGFTLDYYTIGWFRQAPGKEREGVSCINSSGGVTNYADSVKGRFTISRDNAKNTVYLQMNSLKSEDTAVYYCAAQKYYYCSRKGEVYDSWGQGTQVTVSS
notes: as for B1
B7: SB108 rabbit IgG hcAb (Fc fusion)
heavy: QVKLQESGGGLVHSGGSLRLSCAVSGFALDYYTIGWFRQAPGKEREGVSCISSSGSSTNYADSMKGRLTISRDNAKNTVYLQMNSLKPEDTAVYYCAAQRYYYCSDKVAVYDYWGQGTQVTVSS
notes: as for B1
B8: SB124 rabbit IgG hcAb (Fc fusion)
heavy: QVQLQESGGGLVQPGGSLRLSCAASGFTLDYYTIGWFRQAPGKEREGVSCVSSSGDRTDYLESVKGRLTISRDNAKNTVYLQMNSLKPEDTGVYYCAAQKYYYCSGKVEVYDYWGQGTQVTVSS
notes: as for B1
B9: SB115: CD73-specific alpaca VHH clone, family 1, SEQ ID NO:63; tested as rabbit IgG hcAb (antibody)
heavy: DVQLQASGGGLVQPGGSLRLSCVVSGFTLDYYTIGWFRQAPGKEREGVSCINSSGGVTNYADSVKGRFTISRDNAKNTVYLQMNSLKSEDTAVYYCAAQKYYYCSRKGEVYDSWGQGTQVTVSS
modifications: left off: a dimerising Fc or GST
notes: tested as rabbit IgG hcAb
B10: SB124: CD73-specific alpaca VHH clone, family 1, SEQ ID NO:65; tested as rabbit IgG hcAb (antibody)
heavy: QVQLQESGGGLVQPGGSLRLSCAASGFTLDYYTIGWFRQAPGKEREGVSCVSSSGDRTDYLESVKGRLTISRDNAKNTVYLQMNSLKPEDTGVYYCAAQKYYYCSGKVEVYDYWGQGTQVTVSS
modifications: left off: a dimerising Fc or GST
notes: tested as rabbit IgG hcAb
B11: SB142 rabbit IgG hcAb (Fc fusion)
heavy: QVQLVESGGGLVQPGGSLRLSCAASGFTFINYHMSWLRQAPGKGLEWVSEIHSRGDITSYTNSVKGRFTISRDNAKNTLYLQMNSLKFDDTAVYYCARSRDLFGEGEYDYWGRGTQVTVSS
notes: as for B1
B12: SB107: CD73-specific alpaca VHH clone, family 1, SEQ ID NO:66; tested as rabbit IgG hcAb (antibody)
heavy: QVQLQESGGGLVQPGGSLRLSCAASGFTLDYLTIGWFRQAPGKEREGVSCINSNGGSTIYADSVKGRLTISRDNAKNTVYLQINSLKPDDTAVYFCAAQKYYYCSGRVEVYDYWGQGIQVTVSS
modifications: left off: a dimerising Fc or GST
notes: tested as rabbit IgG hcAb
B13: SB123 rabbit IgG hcAb (Fc fusion)
heavy: DVQLQESGGGLVQPGGSLTLSCAASGFTLDYLSIGWFRQVPGKEREGVSCINSSGGSTNYADSVKGRLTISRDNAKNTVYLQINSLKPEDTAVYYCAAHKYYYCSNKVAVFDYWGQGTQVTVSS
notes: as for B1
B14: SB123: CD73-specific alpaca VHH clone, family 1, SEQ ID NO:64; tested as rabbit IgG hcAb (antibody)
heavy: DVQLQESGGGLVQPGGSLTLSCAASGFTLDYLSIGWFRQVPGKEREGVSCINSSGGSTNYADSVKGRLTISRDNAKNTVYLQINSLKPEDTAVYYCAAHKYYYCSNKVAVFDYWGQGTQVTVSS
modifications: left off: a dimerising Fc or GST
notes: tested as rabbit IgG hcAb

Experiments:
[1] = molecular target: T1, recombinant human CD73 ectodomain (aa …); assay: BLI (Octet), immobilized Nb-rbIgG hcAb, soluble human CD73 as analyte
Method: (§1) The binding off-rate constants of bivalent hcAbs to human and mouse CD73 protein were determined by […] kinetic analysis on Octet RED96 (ForteBio). Immobilization of rabbit IgG hcAbs on the protein A-biosensor surface was done in HEK-6E cell supernatant, and regeneration of analytes was done with 100 mM Glycin pH=2.5. Recombinant mouse or human CD73 ectodomain was used as analytes and tested at a saturating dose of 200 ng/μl. Sensorgrams were fitted using least square regression in association than dissociation Model in Prism8 (Graphpad).

soluble human CD73 [2] = molecular target: T2, soluble human CD73; assay: Off-rates of soluble CD73 from immobilized Nb-rbIgG hcAb on Octet BLI; format: binding; details: soluble human CD73 ectodomain 200 ng/μl as analyte; Nb-rbIgG hcAb immobilized on protein A biosensor
Method: as §1

soluble human CD73 [3] = molecular target: T2, soluble human CD73; assay: AMP hydrolysis by soluble CD73, DPEA-Napht-Azide fluorescence assay; format: biochemical; details: 50 ng CD73, 30 min pre-incubation with 10 μl hcAb supernatant, 1 mM AMP
Method: Recombinant human CD73 (50 ng) was pre-incubated for 30 min with hcAbs at RT in 96 well plates before addition of AMP and DPEA-Napht-Azide. Fluorescence signals were detected every 50 seconds for 30 repeats. ARFU values (>10^3/min) were calculated for a 10 min interval during the linear phase (from 5 min to 15 min) using Prism software (Graphpad). A non-specific rabbit IgG hcAb was used as control.
• 4.1 CD73 catalyzes the hydrolysis of AMP to adenosine. This reaction can be monitored by the shift in fluorescence intensity of DPEA-Napht-Azide. This property was used to determine whether hcAbs could interfere with the enzymatic activity of CD73. Soluble recombinant human CD73 (50 ng) was pre-incubated for 30 min with Nbs or hcAbs (10 μl HEK-6E cell supernatant containing 10-100 μg/ml hcAb) at RT in 96 well plates before addition of AMP (Sigma) to a final concentration of 1 mM and of DPEA-Napht-Azide to a final concentration of 50 μM. • 4.2 Fluorescence signals were recorded in white Nunc MicroWell plates (Nunc, 136101) on a Victor III plate reader (Perkin Elmer) (Exicitation filter: F485, Emission Filter: F535; CW-Lamp energy: 40000, counting time: 0.1 s). Data analyses were performed using Prism (Graphpad).
Soluble recombinant human CD73 (50 ng) was pre-incubated for 30 min with CD73-specific hcAbs or an irrelevant control hcAb (10 μl HEK-6E cell supernatant) at RT in 96 well plates before addition of AMP (Sigma) to a final concentration of 1 mM and of DPEA-Napht-Azide to a final concentration of 50 μM. Fluorescence signals were detected every 50 seconds for 30 repeats. Data analyses were performed using Prism (Graphpad).

Molecule	koff [1]	Kdis (soluble human CD73 [2])	effect on hydrolysis of AMP by soluble CD73 (soluble human CD73 [3])
B1	0.00058 s⁻¹		
B2		0.00058 s⁻¹	
B3		0.0018 s⁻¹	
B4		9.7e-05 s⁻¹	inhibited CD73 catalyzed hydrolysis of AMP
B5	0.0018 s⁻¹		
B6	0.00035 s⁻¹		
B7	9.7e-05 s⁻¹		
B8	0.0011 s⁻¹		
B9		0.00035 s⁻¹	inhibited CD73 catalyzed hydrolysis of AMP
B10		0.0011 s⁻¹	
B11	0.00036 s⁻¹		
B12			inhibited CD73 catalyzed hydrolysis of AMP
B13	4.3e-05 s⁻¹		
B14		4.3e-05 s⁻¹	
